Where a chain is given by its changes, count along the chain named.
T1: mouse FcγRII extracellular domain, C-terminally His-tagged (mouse, UniProt P08101 30-210)
T1 construct: the whole entry is named; also called mFcγRII; mFcgRII
T1 sequence: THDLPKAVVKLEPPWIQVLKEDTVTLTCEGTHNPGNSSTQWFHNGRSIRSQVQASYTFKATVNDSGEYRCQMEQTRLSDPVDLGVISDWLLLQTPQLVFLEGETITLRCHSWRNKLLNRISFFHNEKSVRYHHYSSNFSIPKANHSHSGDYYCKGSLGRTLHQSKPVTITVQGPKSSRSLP

T2: mouse FcγRIII extracellular domain, C-terminally His-tagged (mouse, UniProt P08508 31-215)
T2 construct: the whole entry is named; also called mFcγRIII; mFcgRIII
T2 chain: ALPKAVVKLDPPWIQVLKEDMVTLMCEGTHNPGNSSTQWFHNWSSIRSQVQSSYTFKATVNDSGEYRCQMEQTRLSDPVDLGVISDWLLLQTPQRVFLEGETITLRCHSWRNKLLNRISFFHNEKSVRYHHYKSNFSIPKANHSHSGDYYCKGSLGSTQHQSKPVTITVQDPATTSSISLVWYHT

T3: mouse FcγRIII extracellular domain, C-terminal His tag (mouse, UniProt P08508 31-215)
T3 construct: Whole entry named; also called mFcγRIII; mFcgRIII
T3 chain: T2 chain

T4: mouse FcγRII extracellular domain, C-terminal His tag (mouse, UniProt P08101 30-210)
T4 construct: Whole entry named; also called mFcγRII; mFcgRII
T4 sequence: T1 sequence

B1: H237-MB706/MRAL-k0 (antibody, mouse IgG1, kappa)
heavy: QVQLQESGPGLVKPSETLSLTCAVSGHSISHDHAWSWVRQPPGEGLEWIGFISYSGITNYNPSLQGRVTISRDNSKNTLYLQMNSLRAEDTAVYYCARSLARTTAMDYWGEGTLVTVSSAKTTPPSVYPLAPGSAAQTNSMVTLGCLVKGYFPEPVTVTWNSGSLSSGVHTFPAVLQSDLYTLSSSVTVPSSTWPSETVTCNVAHPASSTKVDKKIVPRDCGCKPCICEPAEVEVVFIFPPKPKDVLTITLTPKVTCVVVDISKDDPEVQFSWFVDDVEVHTAQTQPREEQFNSTFRSVSELPIMHQDWLNGKEFKCRVNSAAFPAPIEKTISKTKGRPKAPQVYTIPPPKEQMAKDKVSLTCMITDFFPEDITVEWQWNGQPAENYKNTQPIMDTDGSYFVYSKLNVQKSNWEAGNTFTCSVLHEGLHNHHTEKSLSHSPGK
light: not shown
notes: copies: 2 + 2
B2: H237-MB721/MRAL-k0 (antibody, mouse IgG1, kappa)
heavy: B1 heavy with A231N, V235H
light: not shown
notes: copies: 2 + 2
B3: H237-MB707/MRAL-k0 (antibody, mouse IgG1, kappa)
heavy: B1 heavy with V235I
light: not shown
notes: copies: 2 + 2
B4: H237-MB711/MRAL-k0 (antibody, mouse IgG1, kappa)
heavy: B1 heavy with V235R
light: not shown
notes: copies: 2 + 2
B5: H237-MB720/MRAL-k0 (antibody, mouse IgG1, kappa)
heavy: B1 heavy with A231N, V235R
light: not shown
notes: copies: 2 + 2
B6: H237-MB712/MRAL-k0 (antibody, mouse IgG1, kappa)
heavy: B1 heavy with V235H
light: not shown
notes: copies: 2 + 2
B7: H237-MB792/MRAL-k0 (antibody, mouse IgG1, kappa)
heavy: B1 heavy with E229Q, A231N
light: not shown
notes: copies: 2 + 2
B8: H237-MB885/MRAL-k0 (antibody, mouse IgG1, kappa)
heavy: B1 heavy with V233E, V235S
light: not shown
notes: copies: 2 + 2
B9: H237-MB886/MRAL-k0 (antibody, mouse IgG1, kappa)
heavy: B1 heavy with A231N, V233E, V235S
light: not shown
notes: copies: 2 + 2
B10: H237-MB884/MRAL-k0 (antibody, mouse IgG1, kappa)
heavy: B1 heavy with A231N, V233E, E234S, V235L
light: not shown
notes: copies: 2 + 2
B11: H237-MB878/MRAL-k0 (antibody, mouse IgG1, kappa)
heavy: B1 heavy with E229T, V233E, V235L
light: not shown
notes: copies: 2 + 2
B12: H237-MB883/MRAL-k0 (antibody, mouse IgG1, kappa)
heavy: B1 heavy with V233E, E234S, V235L
light: not shown
notes: copies: 2 + 2
B13: H237-MB732/MRAL-k0 (antibody, mouse IgG1, kappa)
heavy: B1 heavy with A231N, V233E, V235L
light: not shown
notes: copies: 2 + 2
B14: H237-MB731/MRAL-k0 (antibody, mouse IgG1, kappa)
heavy: B1 heavy with V233E, V235L
light: not shown
notes: copies: 2 + 2
B15: H237-MB870/MRAL-k0 (antibody, mouse IgG1, kappa)
heavy: B1 heavy with A231N, V235I, K264D, A322D, A323G, K330R
light: not shown
notes: copies: 2 + 2
B16: H237-MB876/MRAL-k0 (antibody, mouse IgG1, kappa)
heavy: B1 heavy with A231N, V235I, K264D, Q291L, A322D, A323G, E329Y
light: not shown
notes: copies: 2 + 2
B17: H237-MB867/MRAL-k0 (antibody, mouse IgG1, kappa)
heavy: B1 heavy with A231N, V235I, K264D, A322D, A323G
light: not shown
notes: copies: 2 + 2
B18: H237-MB871/MRAL-k0 (antibody, mouse IgG1, kappa)
heavy: B1 heavy with A231N, V235I, K264D, Q291L, A322D, A323G
light: not shown
notes: copies: 2 + 2
B19: H237-MB877/MRAL-k0 (antibody, mouse IgG1, kappa)
heavy: B1 heavy with A231N, V235I, K264D, N320D, A322D, A323G, K330R
light: not shown
notes: copies: 2 + 2
B20: H237-MB875/MRAL-k0 (antibody, mouse IgG1, kappa)
heavy: B1 heavy with A231N, V235I, K264D, Q291L, N320D, A322D, A323G
light: not shown
notes: copies: 2 + 2
B21: H237-MB868/MRAL-k0 (antibody, mouse IgG1, kappa)
heavy: B1 heavy with A231N, V235I, K264D, N320D, A322D, A323G
light: not shown
notes: copies: 2 + 2
B22: H237-MB866/MRAL-k0 (antibody, mouse IgG1, kappa)
heavy: B1 heavy with A231N, V235I, A322D, A323G
light: not shown
notes: copies: 2 + 2
B23: H237-MB869/MRAL-k0 (antibody, mouse IgG1, kappa)
heavy: B1 heavy with A231N, V235I, K264D, A322D, A323G, E329Y
light: not shown
notes: copies: 2 + 2

biological target: T1, mouse FcγRII extracellular domain, …; assay: SPR Biacore T200, KD ratio

Binder | relative mFcγRII-binding activity (mIgG1 = 1) [fold]
B1 | 0.23
B2 | 0.3
B3 | 0.37
B4 | 0.05
B5 | 0.08
B6 | 0.16
B7 | 0.31

Biological target: T2, mouse FcγRIII extracellular domain, …
Assay: SPR Biacore T200

Binder | binding result
B1 | no binding
B2 | no binding
B3 | no binding
B4 | no binding
B5 | no binding
B6 | no binding
B7 | no binding

Biological target: T3, mouse FcγRIII extracellular domain, …
Assay: SPR (Biacore T200); KD of H237-mIgG1/MRAL-k0 / KD of variant
Procedure: (§1) Each altered antibody was analyzed for its interaction with each Fcγ receptor prepared above using Biacore T100 (GE Healthcare Japan Corp.), Biacore T200 (GE Healthcare Japan Corp.), Biacore A100, or Biacore 4000. The running buffer used was HBS-EP+ (GE Healthcare Japan Corp.). The assay temperature was set to 25° C. The sensor chips used were chips prepared by immobilizing Protein L (ACTIGEN or BioVision) onto Series S Sensor Chip CM5 (GE Healthcare Japan Corp.) or Series S Sensor Chip CM4 (GE Healthcare Japan Corp.) by the amine coupling method.
(§2) In order to calculate the KD value of each altered antibody for FcγR, kinetic analysis was conducted according to the following method: first, the antibody of interest was captured onto any of these chips and allowed to interact with mFcγR diluted with a running buffer. For the obtained sensorgram, the assay results were globally fit into the 1:1 Langmuir binding model using Biacore Evaluation Software to calculate an association rate constant ka (L/mol/s) and a dissociation rate constant kd (1/s). From these values, the dissociation constant KD (mol/L) was calculated.

Binder | relative mFcγRIII-binding activity (mIgG1 = 1) [fold]
B8 | 0.13
B9 | 0.08
B10 | 0.09
B11 | 0.03
B12 | 0.11

biological target: T4, mouse FcγRII extracellular domain, …; assay: as above
Procedure: as §1, §2

Binder | relative mFcγRII-binding activity (mIgG1 = 1) [fold]
B8 | 3.29
B9 | 1.47
B10 | 2.46
B11 | 0.47
B12 | 2.21

Biological target: T3, mouse FcγRIII extracellular domain, …
Assay: as above
Remark: another data set of the same source
Description: (§3) The antibody H chain variable region used was the variable region H237 (SEQ ID NO: 1) of the H chain VH3-IgG1 of the anti-IL-6 receptor antibody Fv4-IgG1 described in WO2009/125825. The antibody L chain commonly used was the L chain MRAL-k0 (SEQ ID NO: 2) of the anti-IL-6 receptor antibody tocilizumab. The aforementioned 11 variants were used as templates to introduce the alteration. These variants were expressed and purified by the method of Reference Example 1 and evaluated for their binding to mFcγRII and mFcγRIII by the method of Reference Example 2 using Biacore T200.
as §1, §2

Binder | relative mFcγRIII-binding activity (mIgG1 = 1) [fold]
B13 | 0.03
B14 | 0.03

biological target: T4, mouse FcγRII extracellular domain, …; assay: as above; remark: another data set of the same source
Description: as §3, §1, §2

Binder | relative mFcγRII-binding activity (mIgG1 = 1) [fold]
B13 | 0.84
B14 | 7.13

Biological target: T3, mouse FcγRIII extracellular domain, …
Assay: SPR (Biacore T200); KD of H237-MB716/MRAL-k0 / KD of variant
Description: as §3, with “H237-MB716/MRAL-k0 was” for “The aforementioned 11 variants were”, “a template” for “templates”, “alterations.” for “alteration.”
as §1

Binder | relative mFcγRIII-binding activity (MB716 = 1) [fold]
B15 | 17.6
B16 | 24.9
B17 | 14.3
B18 | 28.2
B19 | 24.4
B20 | 32.3
B21 | 14.4
B22 | 3.02
B23 | 15.8

biological target: T4, mouse FcγRII extracellular domain, …; assay: as above
Description: as §3, with “H237-MB716/MRAL-k0 was” for “The aforementioned 11 variants were”, “a template” for “templates”, “alterations.” for “alteration.”
as §1

Binder | relative mFcγRII-binding activity (MB716 = 1) [fold]
B15 | 8.9
B16 | 13.5
B17 | 8.1
B18 | 14.2
B19 | 12.7
B20 | 16.8
B21 | 8.4
B22 | 3
B23 | 9.4

Biological target: T3, mouse FcγRIII extracellular domain, …
Assay: SPR (Biacore T200); KD of H237-mIgG1/MRAL-k0 / KD of variant
Remark: another data set of the same source
Description: as §3, with “H237-MB716/MRAL-k0 was” for “The aforementioned 11 variants were”, “a template” for “templates”, “alterations.” for “alteration.”
as §1

Binder | relative mFcγRIII-binding activity (mIgG1 = 1) [fold]
B15 | 1.05
B16 | 1.48
B17 | 0.85
B18 | 1.67
B19 | 1.45
B20 | 1.92
B21 | 0.86
B22 | 0.18
B23 | 0.94

biological target: T4, mouse FcγRII extracellular domain, …; assay: as above; remark: another data set of the same source
Description: as §3, with “H237-MB716/MRAL-k0 was” for “The aforementioned 11 variants were”, “a template” for “templates”, “alterations.” for “alteration.”
as §1

Binder | relative mFcγRII-binding activity (mIgG1 = 1) [fold]
B15 | 38.6
B16 | 58.7
B17 | 35.2
B18 | 61.8
B19 | 55.3
B20 | 72.8
B21 | 36.6
B22 | 13
B23 | 41

Source: US20150203577A1 (Chugai, published 2015)
